Test results: the DeepSol protein solubility set

Assay: soluble on expression in E. coli; label from the status in PepcDB or PDB records

Sequence | soluble on expression in E. coli
MAHHHHHHMSDAFEARMSAMRARLSSLCHTVEEQEVEQQQQRRSFEHRYFVEARAAGSAATPAATKPITSTATPPSSAPISRPVTSKSQVPRTDGISERDVNQVHSASRKDAAFGHHFGTSSPSASITRARAAKPGSGVNAMLQLARYHASGSWSEAVVTKDIVRFTGGRSSPVPKAPATIPPEAFAVNTGQDTTDSSPVPLMPCGVAGLHSYGFRERLPSPRRPTASLAANTVDLASRNGEGRTSQNTPREESCITAADTTIVDTMHADEATSFDAFRVVQERLRQKMMQLTTTSPHSVVPLSTRGAPAEFAVSDDATAPREELPHRGLTASRAVSDVDGSSPSPRPPPGTRAETATPTRSPDKDESSSHETAPLPQTTPRYQHGQGDTWTDVEVLPATTEPDTENATEARLFTHGSLHDSVVGSGDETTAVSREWQWSRCGVPSTKARTANVPRGVFDPTVRHVRVSRMPSSDAQLNPAAGEQRADSREYRRSPEAATAGRAHSDRGRSGRTTASIQHGVSSAPRRSGSRHAPSSTSAARWSATREGSVSTAARSRKSAPKPAARPKPISLNVEATILCPVTGAELFALLRMRGLIDSEGDTAEYRLPPVRCHRLYVTAEEHRQLKLLRQSLHSLVAEEQHQDIPSYQRFTVSARSRNAEFAPPPPVLRYMDV | not soluble
MKLTGKQTWEFENPLFVNSSGTAVGPKEKEGPLGHLFDKSYDEMHCNQKNWEMAERKLMEDAVQSALSKQNLKKEDIDIFLAGDLLNQNVTANYVARHLKIPFLCLFGACSTSMESIAISSALIDGGFAKRALAATSSHNATAERQFRYPTEYGGQKPGTATSTVTGSGAVVLSQQPGGIKITSATVGRVIDLGITDSQDMGSAMAPAAADTIKQHLEDLGRTPDDYDLILTGDLSGVGSPILKDLLKEEGINVGTKHNDCGLMIYTPDQQVFAGGSGCACSAVVTFAHIFKEIEAGRLNRVLVVATGALLSPTIIQQKESIPCIAHGVVFERAERGNALEHHHHHH | soluble
AHHHHHHGSAGVRLVDVWKVFGEVTAVRELSLEVKDGEFMILLGPSGCGKTTTLRMIAGLEEPSRGQIYIGDRLVADPEKGIFVPPKDRDIAMVFQSYALYPHMTVYDNIAFPLKLRKVPRQEIDQRVREVAELLGLTELLNRKPRELSGGQRQRVALGRAIVRKPQVFLMDEPLSNLDAKLRVRMRAELKKLQRQLGVTTIYVTHDQVEAMTMGDRIAVMNGGVLQQVGSPDEVYDKPANTFVAGFIGSPPMNFLDAIVTEDGFVDFGEFRLKLLPDQFEVLGELGYVGREVIFGIRPEDLYDAMFARVRVPGENLVRAVVEIVENLGSERIVHLRVGGVTFVGAFRSESRVREGVEVDVVFDMKKIHIFDKTTGKAIF | soluble
MSLDEIKIEKLKKLDKKALNELIDVYMSGYEGLEEYGGEGRDYARNYIKWCWKKASDGFFVAKVGDKIVGFIVCDKDWFSKYEGRIVGAIHEFVVDKKFQGKGIGRKLLITCLDFLGKYNDTIELWVGEKNYGAMNLYEKFGFKKVGKSGIWVRMIKRQNLEGHHHHHH | soluble
MGSDKIHHHHHHMENLTLKGKVILEGIIELETGMHIGGTKETLKIGGTDNPVIRDAFGRILIPGSSLKGKIRALLERKDGKYKEDGRGNYLPHDCGECEICKIFGPHDSKNIKEPVRVIVRDAYLQPEENKKDYDYLEIKVENTIDRLKGTTIKGGIRNMERVVAGSKFKFEVVFNIYKESDKELIKKFIEGMKLLEDDYLGGSGSRGYGKIKFRDIKLICKPKEYYEGNENSKKESDEVESLNELESELDKIWGGINFN | not soluble
MAGDPMGGAGLDNAQNVRNQTQNQTKPIHVSDRNEAFNRHNENEQFGYVRYQKEQFDGEQQKTPVMNREETAHMISSLTVQLPHIQDAATLVTDREALVVYKTDSKNRELTADQVKKTAASVIPRYYHVYISDNPNHMQSVENYSNLGSGSRDIREIMSGTIQEMKTSPQGSPVSENENANGETRQDMKIDRNDKNARLEHHHHHH | soluble
MNKANPKNIPPLAPKKVFIKTYGCQMNVYDSQRMTDSLSSKGYVATQTPNDADLILVNTCHIREKAAEKLYSDLGRLRVMRQERTPDKPLMVGVTGCVAQAEGSEILRRAPIVDLVIGPQMYHRLPDLLEQTKQGKKIVATEYAVEDKFAHLPPHNKRAVRKRGVSAFLTVQEGCDKFCTFCVVPYTRGAEISRSVEQITEEARQLIEAGVKEITLLGQNVNGWHGQNVNGKTWRLGDLLYHLAKLDGLKRLRYTTSHPRDMDDSLIAAHRDLDILMPYLHLPVQSGSDRILKAMNRQHKSIHYLQLIEKIRNARPDIAFSGDFIVGFPGETDEDFEETIKLIKQVEYSSAYSFKYSPRPGTVGATMKNHVEEAVKDARLQHLQVLLLEQQNAFLRSKIGQTTDVLIEKAGRHSGQMVGRSPWLLPVVVDTQASTGTVIPIHIKNTSSNSFVGEMTNM | not soluble
